Laboratory results published in publication PMC6863806.

Molecular target: ROP18 in total lysate antigen of T. gondii RH (RH Ag) (Toxoplasma gondii RH strain) (UniProt Q2PAY2)
Assay: direct ELAA (plate-based aptamer binding)
Details: 50 ug/mL RH Ag coated; aptamer 50-500 nM; Direct ELAA: antigen coated in carbonate pH 9.6 overnight 4 C; 1% BSA block; biotin-aptamer in PBS, 0.5% glucose, 0.1% albumin, 1 M MgCl2 (so in the source), 1 h …

UniProt Q2PAY2, sequence (Q2PAY2 whole entry): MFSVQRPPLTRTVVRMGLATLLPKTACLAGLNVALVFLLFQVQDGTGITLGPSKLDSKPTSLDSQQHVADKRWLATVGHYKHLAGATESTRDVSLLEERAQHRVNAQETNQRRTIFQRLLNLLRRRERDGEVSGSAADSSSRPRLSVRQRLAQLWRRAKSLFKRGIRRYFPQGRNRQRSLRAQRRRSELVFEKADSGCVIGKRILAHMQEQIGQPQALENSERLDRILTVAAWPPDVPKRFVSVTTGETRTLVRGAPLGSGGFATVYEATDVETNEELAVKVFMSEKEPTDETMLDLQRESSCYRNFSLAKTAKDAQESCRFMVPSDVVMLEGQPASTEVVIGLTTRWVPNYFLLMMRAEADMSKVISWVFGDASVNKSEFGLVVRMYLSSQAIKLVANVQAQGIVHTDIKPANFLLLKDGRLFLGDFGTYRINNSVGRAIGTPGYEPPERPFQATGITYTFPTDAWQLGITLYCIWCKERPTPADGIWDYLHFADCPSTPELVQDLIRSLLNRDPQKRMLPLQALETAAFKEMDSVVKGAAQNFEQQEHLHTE

Sequence | Kd [nM]
CGCACCGATCCGGTGTTAATCTCGACGTCCCTTAAGTTTG [AP002] | 97.7
TCCTGGCAGCGCTTTTGCTTGTTTGCTCTCGTACCTGTCC [AP001] | 62.7
